Measurements: patent publication US20040018971A1 (published 2004)

Molecular target: T1, HLA-A*0201 (human)
T1 construct: also called HLA-A2.1
Experiment: competition with 125I-labelled standard peptide 941.01 ([..]) on purified HLA, gel filtration

Binder | relative binding ratio
GISWLGLRSL (Synthetic peptide) [HER2/neu A02 supermotif peptide, position 449, 10 amino acids] | 0.0003 ratio (IC50 of standard peptide / IC50 of test peptide)
GIWIPDGENV (Synthetic peptide) [HER2/neu A02 supermotif peptide, position 737, 10 amino acids] | 0.0002 ratio (IC50 of standard peptide / IC50 of test peptide)
GLGISWLGL (Synthetic peptide) [HER2/neu A02 supermotif peptide, position 447, 9 amino acids] | 0.0018 ratio (IC50 of standard peptide / IC50 of test peptide)
GLGMEHLREV (Synthetic peptide) [HER2/neu A02 supermotif peptide, position 344, 10 amino acids] | 0.0017 ratio (IC50 of standard peptide / IC50 of test peptide)
GLRELQLRSL (Synthetic peptide) [HER2/neu A02 supermotif peptide, position 136, 10 amino acids] | 0.0001 ratio (IC50 of standard peptide / IC50 of test peptide)
GMSYLEDVRL (Synthetic peptide) [HER2/neu A02 supermotif peptide, position 832, 10 amino acids] | 0.0017 ratio (IC50 of standard peptide / IC50 of test peptide)
GVGSPYVSRL (Synthetic peptide) [HER2/neu A02 supermotif peptide, position 776, 10 amino acids] | 0.0001 ratio (IC50 of standard peptide / IC50 of test peptide)
GVLIQRNPQL (Synthetic peptide) [HER2/neu A02 supermotif peptide, position 152, 10 amino acids] | 0.0036 ratio (IC50 of standard peptide / IC50 of test peptide)
HADGGKVPI (Synthetic peptide) [HER2/neu A02 supermotif peptide, position 878, 9 amino acids] | 0.0002 ratio (IC50 of standard peptide / IC50 of test peptide)
HVKITDFGL (Synthetic peptide) [HER2/neu A02 supermotif peptide, position 858, 9 amino acids] | 0.0002 ratio (IC50 of standard peptide / IC50 of test peptide)
HVRENRGRL (Synthetic peptide) [HER2/neu A02 supermotif peptide, position 809, 9 amino acids] | 0.0002 ratio (IC50 of standard peptide / IC50 of test peptide)
IISAVVGILL (Synthetic peptide) [HER2/neu A02 supermotif peptide, position 654, 10 amino acids] | 0.012 ratio (IC50 of standard peptide / IC50 of test peptide)

Molecular target: T2, HLA-A*2401 (human)
T2 construct: Purified HLA class I molecule (kind: MHC class I); also called A*2402
Experiment: inhibition of 125I-labelled standard peptide binding to purified HLA, gel filtration

Binder | relative binding ratio
AFDNLYYW (also called Her2/neu.1216 (8-mer)) [HER2/neu peptide, position 1216, 8 amino acids] | 0.0039 ratio (IC50 of standard peptide / IC50 of test peptide)
AFGTVYKGI (also called Her2/neu.730 (9-mer)) [HER2/neu peptide, position 730, 9 amino acids] | 0.0002 ratio (IC50 of standard peptide / IC50 of test peptide)
AFGTVYKGIW (also called Her2/neu.730 (10-mer)) [HER2/neu peptide, position 730, 10 amino acids] | 0.001 ratio (IC50 of standard peptide / IC50 of test peptide)

Molecular target: HLA-A*6801 (human)
Experiment: inhibition of 125I probe peptide binding to purified HLA

Binder | IC50
HVVPWDQLFK (synthetic analog peptide) [Her2/neu.478.V2K10] | 8.9 nM

Molecular target: HLA-A*0301 (human)
Experiment: as above

Binder | IC50
HVVPWDQLFK (synthetic analog peptide) [Her2/neu.478.V2K10] | 180 nM

Molecular target: T3, HLA-A*0301 (purified HLA class I molecule) (human)
T3 construct: also called A3
Experiment: inhibition of 125I probe peptide binding to purified HLA; ratio to standard peptide

Binder | relative binding ratio
ALESILRRR (also called Her2/neu.890 (9-mer)) [HER2/neu peptide, position 890, 9 amino acids] | 0.0013 ratio (IC50 standard / IC50 test)
ALTLIDTNR (also called Her2/neu.180 (9-mer)) [HER2/neu peptide, position 180, 9 amino acids] | 0.0004 ratio (IC50 standard / IC50 test)
AMPNQAQMR (also called Her2/neu.705 (9-mer)) [HER2/neu peptide, position 705, 9 amino acids] | 0.0004 ratio (IC50 standard / IC50 test)
CAAGCTGPK (also called Her2/neu.240 (9-mer)) [HER2/neu peptide, position 240, 9 amino acids] | 0.0021 ratio (IC50 standard / IC50 test)
CLLDHVRENR (also called Her2/neu.805 (10-mer)) [HER2/neu peptide, position 805, 10 amino acids] | 0.0003 ratio (IC50 standard / IC50 test)
CTGTDMKLR (also called Her2/neu.26 (9-mer)) [HER2/neu peptide, position 26, 9 amino acids] | 0.0002 ratio (IC50 standard / IC50 test)
DLAARNVLVK (also called Her2/neu.845 (10-mer)) [HER2/neu peptide, position 845, 10 amino acids] | 0.0018 ratio (IC50 standard / IC50 test)
DVRPQPPSPR (also called Her2/neu.1144 (10-mer)) [HER2/neu peptide, position 1144, 10 amino acids] | 0.0003 ratio (IC50 standard / IC50 test)
ETEYHADGGK (also called Her2/neu.874 (10-mer)) [HER2/neu peptide, position 874, 10 amino acids] | 0.0003 ratio (IC50 standard / IC50 test)
EVTAEDGTQR (also called Her2/neu.321 (10-mer)) [HER2/neu peptide, position 321, 10 amino acids] | 0.0002 ratio (IC50 standard / IC50 test)
GILIKRRQQK (also called Her2/neu.672 (10-mer)) [HER2/neu peptide, position 672, 10 amino acids] | 0.015 ratio (IC50 standard / IC50 test)
GLACHQLCAR (also called Her2/neu.508 (10-mer)) [HER2/neu peptide, position 508, 10 amino acids] | 0.011 ratio (IC50 standard / IC50 test)
GLGISWLGLR (also called Her2/neu.447 (10-mer)) [HER2/neu peptide, position 447, 10 amino acids] | 0.0037 ratio (IC50 standard / IC50 test)
GLPREYVNAR (also called Her2/neu.549 (10-mer)) [HER2/neu peptide, position 549, 10 amino acids] | 0.0002 ratio (IC50 standard / IC50 test)

Molecular target: HLA-A*1101 (purified HLA class I molecule) (human)
Experiment: as above

Binder | relative binding ratio
ALESILRRR (also called Her2/neu.890 (9-mer)) [HER2/neu peptide, position 890, 9 amino acids] | 0.0006 ratio (IC50 standard / IC50 test)
ALTLIDTNR (also called Her2/neu.180 (9-mer)) [HER2/neu peptide, position 180, 9 amino acids] | 0.0005 ratio (IC50 standard / IC50 test)
AMPNQAQMR (also called Her2/neu.705 (9-mer)) [HER2/neu peptide, position 705, 9 amino acids] | 0.0006 ratio (IC50 standard / IC50 test)
CAAGCTGPK (also called Her2/neu.240 (9-mer)) [HER2/neu peptide, position 240, 9 amino acids] | 0.0021 ratio (IC50 standard / IC50 test)
CLLDHVRENR (also called Her2/neu.805 (10-mer)) [HER2/neu peptide, position 805, 10 amino acids] | 0.0001 ratio (IC50 standard / IC50 test)
CTGTDMKLR (also called Her2/neu.26 (9-mer)) [HER2/neu peptide, position 26, 9 amino acids] | 0.0005 ratio (IC50 standard / IC50 test)
DLAARNVLVK (also called Her2/neu.845 (10-mer)) [HER2/neu peptide, position 845, 10 amino acids] | 0.0007 ratio (IC50 standard / IC50 test)
DVRPQPPSPR (also called Her2/neu.1144 (10-mer)) [HER2/neu peptide, position 1144, 10 amino acids] | 0.0001 ratio (IC50 standard / IC50 test)
ETEYHADGGK (also called Her2/neu.874 (10-mer)) [HER2/neu peptide, position 874, 10 amino acids] | 0.0001 ratio (IC50 standard / IC50 test)
EVTAEDGTQR (also called Her2/neu.321 (10-mer)) [HER2/neu peptide, position 321, 10 amino acids] | 0.0001 ratio (IC50 standard / IC50 test)
GILIKRRQQK (also called Her2/neu.672 (10-mer)) [HER2/neu peptide, position 672, 10 amino acids] | 0.0014 ratio (IC50 standard / IC50 test)
GLACHQLCAR (also called Her2/neu.508 (10-mer)) [HER2/neu peptide, position 508, 10 amino acids] | 0.0001 ratio (IC50 standard / IC50 test)
GLGISWLGLR (also called Her2/neu.447 (10-mer)) [HER2/neu peptide, position 447, 10 amino acids] | 0.0001 ratio (IC50 standard / IC50 test)
GLPREYVNAR (also called Her2/neu.549 (10-mer)) [HER2/neu peptide, position 549, 10 amino acids] | 0.0003 ratio (IC50 standard / IC50 test)
